Data on 7 molecules can be found in patent publication US20250276075A1, “METHODS OF TREATING AXL-EXPRESSING CANCERS WITH ANTI-AXL ANTIBODIES, ANTIBODY FRAGMENTS AND THEIR IMMUNOCONJUGATES” (BIOATLA, INC., priority 2020, published 2025).

First the molecules themselves.
T1: Axl (Homo sapiens, UniProt P30530)
T1 sequence (P30530 26-451 limits assumed): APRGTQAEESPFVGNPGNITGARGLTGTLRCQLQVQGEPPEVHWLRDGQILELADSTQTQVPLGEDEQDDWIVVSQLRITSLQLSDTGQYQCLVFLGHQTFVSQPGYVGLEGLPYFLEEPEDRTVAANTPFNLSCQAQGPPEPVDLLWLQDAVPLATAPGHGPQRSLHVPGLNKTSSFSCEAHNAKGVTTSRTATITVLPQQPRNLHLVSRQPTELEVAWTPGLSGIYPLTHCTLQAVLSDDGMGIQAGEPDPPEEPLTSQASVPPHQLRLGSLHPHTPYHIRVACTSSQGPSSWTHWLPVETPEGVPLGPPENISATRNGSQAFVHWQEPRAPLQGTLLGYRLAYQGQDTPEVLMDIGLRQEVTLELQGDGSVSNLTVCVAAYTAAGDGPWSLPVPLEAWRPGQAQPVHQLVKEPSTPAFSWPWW

B1: CAB-Axl-ADC: anti-Axl antibody conjugated to a model toxin (e.g., gemcitabine), conditionally active antibody-drug conjugate (conjugate)
VH: EVQLVQSGAEVKKPGATVKISCKVSGYSFWGATMNWIRQPPGKGLEWIGLIKPSNGGTSYNQKFKGRVTISADKSISTAYLQWSSLKASDTAMYYCAHGHYESYEAMDYWGQGTLVTVSS
VL: DIQMTQSPSSLSASVGDRVTITCKASQDVVSAVAWYQQKPGQAPRLLIYWQDTRHTGVPSRFSGSGSGTEFTLTISSLQPDDFATYYCQEHFSPPLTFGQGTKVEIK
B2: HC-M107E (antibody, V domains shown)
VH: B1 VH with W30T, A32H, E105F, M107E
VL: B1 VL with V30S, Q51A, D52S, P94T
B3: HC-W110A (antibody, V domains shown)
VH: B1 VH with W30T, A32H, E105F, W110A
VL: B1 VL with V30S, Q51A, D52S, P94T
B4: HC-W110P (antibody, V domains shown)
VH: B1 VH with W30T, A32H, E105F, W110P
VL: B1 VL with V30S, Q51A, D52S, P94T
B5: HC-M107F (antibody, V domains shown)
VH: B1 VH with W30T, A32H, E105F, M107F
VL: B1 VL with V30S, Q51A, D52S, P94T
B6: HC-W110D (antibody, V domains shown)
VH: B1 VH with W30T, A32H, E105F, W110D
VL: B1 VL with V30S, Q51A, D52S, P94T
B7: HC-G111H (antibody, V domains shown)
VH: B1 VH with W30T, A32H, E105F, G111H
VL: B1 VL with V30S, Q51A, D52S, P94T

Positions count from the first letter of the chain named. Names may count otherwise.

The subject of the first assay is A549 cells. Kind of assay: Conditional cell killing by CAB-Axl-ADC (model toxin) at pH 6.0 and 7.4. In kind it is cell-based. The conditions noted are these: FIG. 11. An excerpt:
The anti-Axl antibody of the present invention was conjugated to a model toxin (e.g., gemcitabine) to produce a conditionally active antibody-drug conjugate (CAB-Axl-ADC). The CAB-Axl-ADC was first tested to confirm that the conditional cell killing activity was not altered by the drug conjugation process.
Consider B1, for which the “cell killing at pH 6.0 versus pH 7.4” value is recorded as “killed significantly more cells at pH 6.0 than at pH 7.4”.

Another assay deals with Axl (UniProt P30530). Kind of assay: ELISA, 1:9 dilution.
Settings: not given
Background: ELISA stands for enzyme-linked immunosorbent assay.
For B2, the Affinity ELISA CPE mutant ratio (1:9, pH 6.0/7.4) was 1.36.

Regarding B3, the Affinity ELISA CPE mutant ratio (1:9, pH 6.0/7.4) is 1.2.

Turning to B4, the Affinity ELISA CPE mutant ratio (1:9, pH 6.0/7.4) worked out at 2.15.

For the molecule B5, the Affinity ELISA CPE mutant ratio (1:9, pH 6.0/7.4) came out at 1.09.

In the case of B6, the Affinity ELISA CPE mutant ratio (1:9, pH 6.0/7.4) came out at 1.11.

With B7, the Affinity ELISA CPE mutant ratio (1:9, pH 6.0/7.4) stood at 1.79.

The target of a further assay is T1, Axl. In words: Affinity ELISA of CPE mutant antibodies for binding to Axl at pH 6.0 over pH 7.4. To be noted: heavy chain variable region mutants; 1:3 dilution. The gist of the method: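 Single-point mutant anti-Axl antibody library (CPE) screened by ELISA for binding at pH 6.0 versus pH 7.4, at 1:3 and 1:9 antibody dilutions, in serum with FLAG-tag detection and carbonate (Krebs-Ringer) buffer. Selection criterion: pH 6.0/pH 7.4 binding ratio ≥1.5 at either dilution.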
Take B2: the “Affinity ELISA CPE mutant ratio (1:3, pH 6.0/7.4)” value stood at 2.164.

In the case of B3, the “Affinity ELISA CPE mutant ratio (1:3, pH 6.0/7.4)” value was 7.909.

B4: the “Affinity ELISA CPE mutant ratio (1:3, pH 6.0/7.4)” value was 6.490.

For the molecule B5, the “Affinity ELISA CPE mutant ratio (1:3, pH 6.0/7.4)” value was found to be 20.579.

As for B6, the “Affinity ELISA CPE mutant ratio (1:3, pH 6.0/7.4)” value is reported as 3.716.

Turning to B7, the “Affinity ELISA CPE mutant ratio (1:3, pH 6.0/7.4)” value was 1.058.

The assay is the same for the next values; noted with them: heavy chain variable region mutants; 1:9 dilution.
With B2, the “Affinity ELISA CPE mutant ratio (1:9, pH 6.0/7.4)” value is 1.357.

With B3, the “Affinity ELISA CPE mutant ratio (1:9, pH 6.0/7.4)” value came out at 1.198.

Take B4: the “Affinity ELISA CPE mutant ratio (1:9, pH 6.0/7.4)” value stood at 2.148.

Regarding B5, the “Affinity ELISA CPE mutant ratio (1:9, pH 6.0/7.4)” value is recorded as 1.090.

In the case of B6, the “Affinity ELISA CPE mutant ratio (1:9, pH 6.0/7.4)” value is given as 1.112.

Consider B7, for which the “Affinity ELISA CPE mutant ratio (1:9, pH 6.0/7.4)” value is 1.786.

The target of the next assay is Axl (UniProt P30530). Kind of assay: ELISA, 1:3 dilution.
Settings: not given
Regarding B2, the Affinity ELISA CPE mutant ratio (1:3, pH 6.0/7.4) amounted to 2.16.

Take B3: the Affinity ELISA CPE mutant ratio (1:3, pH 6.0/7.4) is 7.91.

For the molecule B4, the Affinity ELISA CPE mutant ratio (1:3, pH 6.0/7.4) turned out to be 6.49.

For B5, the Affinity ELISA CPE mutant ratio (1:3, pH 6.0/7.4) worked out at 20.6.

As to B6, the Affinity ELISA CPE mutant ratio (1:3, pH 6.0/7.4) was found to be 3.72.

With B7, the Affinity ELISA CPE mutant ratio (1:3, pH 6.0/7.4) is 1.06.

The next assay concerns MiaPaCa2 xenograft tumors. Kind of assay: MiaPaCa2 xenograft tumor study in mice. In kind it is in vivo. The conditions noted are these: 1 mg/kg twice weekly for 3 weeks; in comparison with the controls. The method, then: The CAB-Axl-ADC was then injected into mice bearing MiaPaCa2 xenograft tumors at a dose of 1 mg/kg twice weekly for 3 weeks. Several controls were used in this study, including naked CAB (anti-Axl antibody with no conjugation), vehicle, the toxin alone (unconjugated gemcitable), control ADC, an affinity matching anti-Axl ADC (AM ADC).
Consider B1, for which the “reduction in the size of the tumor” value is given as “significantly greater reduction in the size of the tumor”.
